According to US20100145006A1, “SUPRAVALENT COMPOUNDS” (priority 2005, published 2010):
Bridges are numbered along the chain shown (N, C = ends). Where no end group is shown, it is not given here. Side-chain parts run from the residue outwards. [ ]: non-standard residue; d: D form. 1Nal = N[C@@H](Cc1cccc2ccccc12)C(=O)O

Columns and labels:
TF-1 Cells [1] = assay: TF-1 proliferation assay (MTS, viable cell number), EPO-like activity; type: cell-based, human; conditions: normalized plots
Protocol: An experiment was performed in a standard TF-1 cell assay as recommended by the European Pharmacopoe for the determination of EPO-like activity in vitro (please also see below). Basically, TF-1 cells (their proliferation being dependent from the presence of EPO-like activity) are cultured in the presence various concentrations of EPO or EPO-mimetic substances. The resulting cell numbers are quantified using colorimetric MTT-assay and photometric measurements.
In a TF-1 proliferation assay, TF-1 cells are seeded and cultured for several days in varying concentrations of EPO or EPO mimetic peptides in a multi-well plate.
For optimal results TF-1 cells should be cultured for two days in the absence of any cytokine (starved) before starting the assay. Three days after starting the assay, cell proliferation is measured indirectly by assaying the number of viable cells.
A tetrazolium reagent, called MTS, is added which is reduced to coloured formazan. This reaction depends on NADH and NADPH, in other words depends on mitochondrial activity. The amount of formazan is measured spectrophotometrically. Using a range of known cell numbers for calibration, it is possible to determine the absolute number of viable cells present under each condition. The principal design is also illustrated in FIG. 24.
The activity of a certain agent in this assay is determined by: • 1. assessing whether this agent causes an increase in the number of viable cells at a certain concentration, and • 2. at which concentration this agent exerts a half-maximum effect (determination of the EC50).

TF-1 Cells [2] = assay: Proliferation assay with TF-1 cells by MTT (printed MU), peptide monomers; type: cell-based, human; conditions: TF-1 proliferation, MTT-assay data, GraphPad dose-response
Protocol: Proliferation Assay with TF-1 Cells by MU
TF-1 Cells in logarithmic growth phase (˜2.10^5-1.10^6 cells/ml; RPMI medium; 20% fetal calf serum; supplemented with Penicillin, streptomycin, L-Glutamine; 0.5 ng/ml Interleukin 3) are washed (centrifuge 5 min. 1500 rpm and resuspended in RPMI complete without IL3 at 500.000 cells/ml) and precultured before start of the assay for 24 h without IL-3. At the next day the cells are seeded in 24- or 96-well plates usually using at least 6 concentrations and 4 wells per concentration containing at least 10.000 cells/well per agent to be tested. Each experiment includes controls comprising recombinant EPO as a positive control agent and wells without addition of cytokine as negative control agent. […]
At day 4, prior to start of the analysis, a dilution series of a known number of TF-1 cells is prepared in a number of wells (0/2500/5000/10000/20000/50000 cells/well in 100 μl medium). These wells are treated in the same way as the test wells and later provide a calibration curve from which cell numbers can be determined. […] 25 μl of 10% sodium dodecyl sulfate in water are added to each well prior to measurement E492 in an ELISA Reader.
Using graphical evaluations as shown in FIGS. 17 and 18 based on calculations of the dose-response relationship using the program GraphPad the following EC50 values were determined on the basis of MU-assay data: […]

[3] = biological target: T1, erythropoietin receptor (EPOR) on human TF-1 cells (human, UniProt P19235 25-508); assay: cell-based or functional assay
T1 sequence (looked up): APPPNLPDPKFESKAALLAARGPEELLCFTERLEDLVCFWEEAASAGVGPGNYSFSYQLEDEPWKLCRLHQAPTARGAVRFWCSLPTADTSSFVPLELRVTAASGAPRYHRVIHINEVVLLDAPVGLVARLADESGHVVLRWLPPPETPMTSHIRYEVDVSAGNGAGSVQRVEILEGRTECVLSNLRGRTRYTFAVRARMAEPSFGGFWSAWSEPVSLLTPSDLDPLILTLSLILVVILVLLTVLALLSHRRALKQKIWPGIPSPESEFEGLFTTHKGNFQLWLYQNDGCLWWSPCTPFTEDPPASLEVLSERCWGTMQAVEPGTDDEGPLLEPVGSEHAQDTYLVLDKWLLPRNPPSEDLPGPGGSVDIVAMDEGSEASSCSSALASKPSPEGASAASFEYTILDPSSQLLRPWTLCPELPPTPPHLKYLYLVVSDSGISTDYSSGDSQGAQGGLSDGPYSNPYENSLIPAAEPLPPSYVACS

Molecule | efficacy and potency compared with other EPO mimetic peptides (TF-1 Cells [1]) | EC50, TF-1 cell proliferation (MTT assay) [3] | also measured
GGTYSCHFGKLTWVCKKQGG [SEQ ID NO 2, EPO mimetic peptide monomer] | in the same range as EMP1 | – | –
AGEM40_HES: peptide (AGEM40) HESylated according to the supravalence principle (Ac-C([maleimide-HES 130 kD])GGTYSCHFGKLT[1Nal]VCKKQRGGGTYSCHFGKLT[1Nal]VCKKQRG-NH2; disulfide 7-16, 27-36 (inferred)) | highly effective and potent | – | –
GGTYSCHFGGLTWVCKPQGG | – | – | EC50 values of exemplary peptide monomers (TF-1 Cells [2]): no activity
Ac-GGTYSCHFGKLT-Na1-VCKKQRG-Am (Ac-GGTYSCHFGKLT[1Nal]VCKKQRG-NH2; cysteine pairing not given here) [BB68] | even more effective than EMP1 and 8849 | – | efficacy and potency compared with other EPO mimetic peptides (TF-1 Cells [1]; listed as B868): improved effect
GGTYSCHFAKLTWVCKKQGG (disulfide 6-15 (inferred)) [peptide GGTYSCHFAKLTWVCKKQGG] | – | 5.04 µM | –
Ac-GGTYSCHFGKLTWVCKKQGG (disulfide 6-15 (inferred)) [SEQ ID NO 2 peptide GGTYSCHFGKLTWVCKKQGG (BB49, monomer)] | – | 3.28 µM | –
GGTYSCHFGKLTWVCKPQGG (disulfide 6-15 (inferred)) [SEQ ID NO 4 peptide GGTYSCHFGKLTWVCKPQGG] | – | 4.66 µM | –
GGTYSCHFGRLTWVCKKQGG (disulfide 6-15 (inferred)) [SEQ ID NO 6 peptide GGTYSCHFGRLTWVCKKQGG] | – | 4.97 µM | –
GGTYSCHFGRLTWVCKPQGG (disulfide 6-15 (inferred)) [SEQ ID NO 5 peptide GGTYSCHFGRLTWVCKPQGG] | – | 5.16 µM | –
GGTYSCHFGPLTWVCKKQGG (disulfide 6-15 (inferred)) [peptide GGTYSCHFGPLTWVCKKQGG] | – | 2.52 µM | –
